The target in the test is Gαo, alpha subunit of the heterotrimeric G protein Go (native, mouse brain) (mouse (endogenous in BALB/c mouse brain)) (UniProt P18872). Kind of test: co-IP; mouse brain lysate (2 mg/ml in IP buffer: 50 mM HEPES pH 7.4, 100 mM NaCl, 1 mM EDTA, 3 mM EGTA, 10 mM MgCl2, 1% Triton X-100) with 100 µM GDP, 4 °C, 2 h; Gαo precipitated with anti-Gαo sc-13532 cross-linked to protein A/G agarose; read by protein stain and western blot.

In publication PMC12677461 one finds stoichiometry N data, which are given here for one substance.

Chain of UniProt P18872 (P18872 whole entry, one chain of several): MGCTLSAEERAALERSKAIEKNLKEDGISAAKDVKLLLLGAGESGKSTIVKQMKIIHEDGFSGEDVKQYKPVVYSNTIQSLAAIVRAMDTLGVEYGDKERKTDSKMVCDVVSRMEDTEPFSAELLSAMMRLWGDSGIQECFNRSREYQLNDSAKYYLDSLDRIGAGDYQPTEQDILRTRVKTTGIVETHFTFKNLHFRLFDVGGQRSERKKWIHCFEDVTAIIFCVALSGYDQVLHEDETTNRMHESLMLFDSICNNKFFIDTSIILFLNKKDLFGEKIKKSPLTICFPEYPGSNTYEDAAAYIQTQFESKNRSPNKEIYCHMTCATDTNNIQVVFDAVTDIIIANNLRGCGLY

Broadly, the stoichiometry N is a count of units in the complex or per binding partner. With “Gβγ (G protein β and γ subunits, native, mouse brain) (from UniProt P62874 1-340; P63213 1-71) (complex)”, the stoichiometry N was 1.
